{"source": "patent US20060104978A1", "about": "“Methods and compositions for PDGF-C activation and inhibition” (LUDWIG INSTITUTE FOR CANCER RESEARCH, priority 2003, published 2006)", "molecules": {"B1": {"name": "activated PDGF-CC: activated PDGF-CC protein, growth factor without CUB domains (protein)", "chain": "GRKSRVVDLNLLTEEVRLYSCTPRNFSVSIREELKRTDTIFWPGCLLVKRCGGNCACCLHNCNECQCVPSKVTKKYHEVLQLRPKTGVRGLHKSLTDVALEHHEECDCVCRGSTGG"}}, "key": {"[1]": {"conditions": "cornea pocket model; cited from earlier work"}, "[2]": {"system": "wild-type and tPA-deficient fibroblasts", "assay": "BrdU incorporation in primary fibroblasts", "type": "cell-based, mouse", "conditions": "50 ng/ml, 24 hours BrdU labeling", "description": "Cell nuclei were visualized with 4′,6-diamidine-2′-phenylindole dihydrochloride (DAPI), and BrdU-labeled cells were determined by immunofluorescence using antibodies to BrdU (FIG. 7B).\n(§1) To monitor cell growth, both the cell proliferation reagent WST-1 (Roche) and BrdU (Sigma) were used. A total of 0.4×10^4 (WST-1) or 1×10^4 (BrdU) wild-type and tPA-deficient fibroblasts were seeded in triplicate-hexaplicate, and after attachment they were serum-starved overnight. Serum-starved cells were counted (WST-1 seeding control) and alternatively incubated for 24 hours in serum-free medium supplemented with 1 mg/ml BSA, and 50 μM BrdU in the BrdU experiment, in the absence or presence of 50 ng/ml activated PDGF-CC or tPA protein (#116, American Diagnostica Inc.). Upon counting, WST-1 reagent was added and measured according to the manufacturer's protocol using an ELISA reader. In the BrdU experiment, the cells were fixed in 4% paraformaldehyde in PBS for 30 min at room temperature and the DNA was denatured in 2M HCl for 20 min at room temperature and then blocked in 0.5% BSA, 0.5% Tween, and 10% goat serum in PBS. […] Quantification of the BrdU-positive cells was performed by counting all cells along the vertical and horizontal diameters of all wells."}, "PDGFR-α": {"biological_target": "T1, PDGFR-α (Mus musculus, UniProt P26618)", "T1 construct": "endogenous in cells; host or cells: primary mouse kidney and lung fibroblasts", "T1 sequence (P26618 25-1089)": "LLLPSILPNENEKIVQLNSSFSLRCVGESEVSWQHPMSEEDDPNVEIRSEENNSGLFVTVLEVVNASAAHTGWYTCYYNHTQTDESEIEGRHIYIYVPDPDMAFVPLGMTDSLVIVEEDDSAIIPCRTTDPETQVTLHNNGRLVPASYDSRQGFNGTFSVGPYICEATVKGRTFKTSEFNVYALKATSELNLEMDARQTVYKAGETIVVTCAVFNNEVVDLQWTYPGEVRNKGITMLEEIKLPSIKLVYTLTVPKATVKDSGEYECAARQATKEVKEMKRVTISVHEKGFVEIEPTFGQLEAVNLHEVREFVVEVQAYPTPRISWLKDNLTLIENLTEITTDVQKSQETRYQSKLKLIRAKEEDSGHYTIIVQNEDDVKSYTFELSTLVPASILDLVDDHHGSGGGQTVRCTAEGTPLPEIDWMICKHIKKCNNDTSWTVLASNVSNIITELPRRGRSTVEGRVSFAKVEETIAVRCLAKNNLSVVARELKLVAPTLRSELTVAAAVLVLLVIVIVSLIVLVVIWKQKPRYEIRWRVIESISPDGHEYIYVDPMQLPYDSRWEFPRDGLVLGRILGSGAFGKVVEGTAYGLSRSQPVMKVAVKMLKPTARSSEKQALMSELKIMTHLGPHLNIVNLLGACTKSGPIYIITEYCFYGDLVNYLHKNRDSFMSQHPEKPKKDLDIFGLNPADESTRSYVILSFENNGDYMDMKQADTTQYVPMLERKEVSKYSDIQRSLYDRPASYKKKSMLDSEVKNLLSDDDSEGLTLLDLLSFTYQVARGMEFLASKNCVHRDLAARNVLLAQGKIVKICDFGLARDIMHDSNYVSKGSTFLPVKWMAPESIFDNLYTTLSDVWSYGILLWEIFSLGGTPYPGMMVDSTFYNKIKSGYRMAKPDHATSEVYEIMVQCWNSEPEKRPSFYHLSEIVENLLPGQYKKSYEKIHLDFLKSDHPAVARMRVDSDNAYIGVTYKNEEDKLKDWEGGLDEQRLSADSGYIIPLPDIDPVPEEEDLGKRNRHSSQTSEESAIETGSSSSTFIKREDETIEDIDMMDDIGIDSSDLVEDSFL", "assay": "PDGFR-α tyrosine phosphorylation in primary fibroblasts", "type": "cell-based", "conditions": "100 ng/ml activated PDGF-CC protein", "description": "It is known that constitutive activation of PDGFRs by PDGFs leads to receptor desensitization (Heldin and Westermark, 1999), and therefore it was investigated whether the differences observed in growth between the wild-type and tPA-deficient fibroblasts upon PDGF-CC treatment were due to differential activation of PDGFR-α. Recombinant PDGF-CC protein was applied onto the primary fibroblasts and receptor activation was measured as induction of PDGFR-α tyrosine phosphorylation (FIG. 7D, upper panel).\nTo monitor growth factor-induced tyrosine phosphorylation of PDGFR-α, serum-starved PAE cells stably expressing human PDGFR-α were incubated for 120 min on ice with conditioned medium from COS-1 cells transfected with full-length PDGF-C in the absence or presence of tPA. Alternatively, primary wild-type and tPA-deficient fibroblasts were stimulated with 100 ng/ml activated PDGF-CC protein. The cells were lysed as described previously (Li et al, 2000) and PDGFR-α was immunoprecipitated using a specific antiserum (Eriksson et al, 1992). Precipitated proteins were separated by SDS-PAGE under reducing conditions. Tyrosinephosphorylated receptors were detected by immunoblotting using an antiphosphotyrosine antibody (PY99, Santa Cruz). The membranes were stripped and reprobed using a polyclonal antibody against the C-terminal of the PDGFRs (CED) to detect receptor expression levels."}, "[3]": {"system": "tPA-deficient fibroblasts", "assay": "WST-1 growth assay of primary fibroblasts in serum-free medium", "type": "cell-based, mouse", "conditions": "50 ng/ml added to serum-free culture medium, 24 hours", "description": "It was observed that primary fibroblasts derived from tPA-deficient mice grew more slowly in culture than fibroblasts derived from wild-type animals, raising the possibility that activation of latent PDGF-CC by tPA generated autocrine and paracrine growth stimulatory loops for primary fibroblasts in culture. To analyze this effect, isolated wild-type and tPA-deficient fibroblasts were serum-starved overnight, and the growth of the cells during the next 24 hours was monitored using an enzyme-based viability assay (see Example 8, Materials and Methods).\nas §1, with “reader.” for “reader. In the BrdU experiment, the cells were fixed in 4% paraformaldehyde in PBS for 30 min at room temperature and the DNA was denatured in 2M HCl for 20 min at room temperature and then blocked in 0.5% BSA, 0.5% Tween, and 10% goat serum in PBS.”"}}, "data": [{"molecule": "B1", "values": [{"measurement": "neoangiogenesis", "setting": "[1]", "result": "strong inducer of neoangiogenesis"}, {"measurement": "BrdU incorporation in tPA-deficient cells", "setting": "[2]; serum-starved tPA-deficient fibroblasts", "result": "strongly stimulated BrdU incorporation in the tPA-deficient cells"}, {"measurement": "BrdU incorporation in wild-type cells", "setting": "[2]; serum-starved wild-type fibroblasts", "result": "had less effect on wild-type cells"}, {"measurement": "induction of PDGFR-α tyrosine phosphorylation, tPA-deficient versus wild-type fibroblasts", "setting": "PDGFR-α", "result": "more pronounced in the tPA-deficient cells as compared to wild type"}, {"measurement": "rescue of growth of tPA-deficient fibroblasts", "setting": "[3]", "result": "allowed the cells to grow similar to the wild-type fibroblasts"}]}]}
